These are literature values, as cited in paper PMC3012698, “Characterization of a Novel Interaction between Bcl-2 Members Diva and Harakiri” (PLoS ONE, 2010).

The conditions of this data set: ref [10]. How it is done:
Circular dichroism (CD) experiments were performed on Harakiri's cytosolic domain to obtain information on its conformational behavior. […] Thus, the cytosolic domain of Harakiri is largely unstructured. Consequently, the NMR spectra of Hrk_ΔTM show small amide ^1H chemical shift dispersion (from ∼7.9 to 8.7 ppm) and severe signal overlap ( Fig. 6 ). These spectral features together with the absen ...

As to Bim: BH3-only protein Bim, the “folding upon binding to Bcl-2 members” value is listed as “undergoes partial folding upon binding to Bcl-2 members” and the “structural state of unbound BH3-only protein” value is listed as “unstructured”. On to Bmf: BH3-only protein Bmf, for which the “structural state of unbound BH3-only protein” value was “unstructured”.
